The source of these data is patent US20220195007A1.

Some results are limits rather than exact numbers.

The test concerns the target CD20 polypeptide (safety switch) expressed on transduced T cells (human) (UniProt P11836). The test can be described thus: cell-based or functional assay.
Chain of UniProt P11836 (P11836 whole entry): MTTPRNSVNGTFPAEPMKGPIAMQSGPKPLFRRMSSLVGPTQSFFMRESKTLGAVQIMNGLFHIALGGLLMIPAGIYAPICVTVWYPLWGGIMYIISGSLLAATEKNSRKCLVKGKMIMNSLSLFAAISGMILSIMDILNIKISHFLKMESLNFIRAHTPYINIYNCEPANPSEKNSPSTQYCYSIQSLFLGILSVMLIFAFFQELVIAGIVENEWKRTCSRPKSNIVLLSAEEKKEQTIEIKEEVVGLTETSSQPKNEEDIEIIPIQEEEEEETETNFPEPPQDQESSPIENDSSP

For Rituximab (Rituxan®, Biogen) (antibody), the 4-hour chromium release assay on IL13Rα2-CAR^CD20 T cells worked out at 70%; the decrease in CD20+ cell number by flow cytometry after 1 hour (rituximab + complement vs rituximab alone) was more than 30%; the killing of CD123-CAR T cells by rituximab and complement came to 80%.
